Positions count from the first letter of the chain named. Ends that are not written are not given here.
T1: MUC5AC truncation construct 1-85 (human, UniProt P98088 1734-1794)
T1 chain: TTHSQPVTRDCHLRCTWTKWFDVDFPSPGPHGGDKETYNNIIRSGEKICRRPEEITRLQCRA

T2: MUC5AC truncation construct 1-136 (human, UniProt P98088 3212-4055)
T2 sequence: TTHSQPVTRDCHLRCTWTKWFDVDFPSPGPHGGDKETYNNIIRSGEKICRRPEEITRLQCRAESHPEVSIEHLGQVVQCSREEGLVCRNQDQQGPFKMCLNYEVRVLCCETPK

B1: NEO-101 antibody (chimeric) (antibody, V domains shown)
VH: QVQLKESGPDLVAPSQSLSITCTVSGFSLSKFGVNWVRQPPGKGLEWLGVIWGDGSTSYNSGLISRLSISKENSKSQVFLKLNSLQADDTATYYCVKPGGDYWGHGTSVTVSS
VL: QVVLTQSPVIMSASPGEKVTMTCSASSSISYMYWYQQKPGTSPKRWIYDTSKLASGVPARFSGSGSGTSYSLTISNMEAGDAATYYCHQRDSYPWTFGGGTNLEIK
notes: Chimeric, murine variable regions with human constant regions; Used unlabeled, biotinylated, FITC-labeled or coupled to Dynal beads depending on the assay; also called NPC-1C; NPC-1-C
B2: M13 phage clone 4-1-2-C5 (other)
chain: WHTLPEKSLDENGGGSAETVESCLAKPHTENSFTNVWKDDKTLDRYANYEGCLWNATGVVVCTGDETQCYGTWVPIGLAIPENEGGGSEGGGSEGGGSEGGGTKPPEYGDTPIPGYTYINPLDGTYPPGTEQNPANPNPSLEESQPLNTFMFQNNRFRNRQGALTVYTGTVTQGTDPVKTYYQYTPVSSKAMYDAYWNGKFRDCAFHSGFNEDPFVCEYQGQSSDLPQPPVNAGGGSGGGSGGGSEGGGSEGGGSEGGGSEGGGSGGGSGSGDFDYEKMANANKGAMTENADENALQSDAKGKLDSVATDYGAAIDGFIGDVSGLANGNGATGDFAGSNSQMAQVGDGDNSPLMNNFRQYLPSLPQSVECRPFVFSAGKPYEFSIDCDKINLFRGVFAFLLYVATFMYVFSTFANILRNKES
notes: Whole phage particle displaying the peptide on pIII
B3: M13 phage clone 4-1-3-C11 (other)
chain: VHAIEDNWSPRGGGGSAETVESCLAKPHTENSFTNVWKDDKTLDRYANYEGCLWNATGVVVCTGDETQCYGTWVPIGLAIPENEGGGSEGGGSEGGGSEGGGTKPPEYGDTPIPGYTYINPLDGTYPPGTEQNPANPNPSLEESQPLNTFMFQNNRFRNRQGALTVYTGTVTQGTDPVKTYYQYTPVSSKAMYDAYWNGKFRDCAFHSGFNEDPFVCEYQGQSSDLPQPPVNAGGGSGGGSGGGSEGGGSEGGGSEGGGSEGGGSGGGSGSGDFDYEKMANANKGAMTENADENALQSDAKGKLDSVATDYGAAIDGFIGDVSGLANGNGATGDFAGSNSQMAQVGDGDNSPLMNNFRQYLPSLPQSVECRPFVFSAGKPYEFSIDCDKINLFRGVFAFLLYVATFMYVFSTFANILRNKES
notes: Whole phage particle; its peptide served as the control peptide
B4: M13 phage clone 4-1-3-C8 (other)
chain: B2 chain with K7S, S8G, L9E, D10V, E11T, N12S
notes: as for B2
B5: M13 phage clone 4-1-3-C9 (other)
chain: FPEDYFRYTNQKGGGSAETVESCLAKPHTENSFTNVWKDDKTLDRYANYEGCLWNATGVVVCTGDETQCYGTWVPIGLAIPENEGGGSEGGGSEGGGSEGGGTKPPEYGDTPIPGYTYINPLDGTYPPGTEQNPANPNPSLEESQPLNTFMFQNNRFRNRQGALTVYTGTVTQGTDPVKTYYQYTPVSSKAMYDAYWNGKFRDCAFHSGFNEDPFVCEYQGQSSDLPQPPVNAGGGSGGGSGGGSEGGGSEGGGSEGGGSEGGGSGGGSGSGDFDYEKMANANKGAMTENADENALQSDAKGKLDSVATDYGAAIDGFIGDVSGLANGNGATGDFAGSNSQMAQVGDGDNSPLMNNFRQYLPSLPQSVECRPFVFSAGKPYEFSIDCDKINLFRGVFAFLLYVATFMYVFSTFANILRNKES
notes: as for B2
B6: M13 phage clone 4-1-4-C12 (other)
chain: SLPDDWFRYINYGGGSAETVESCLAKPHTENSFTNVWKDDKTLDRYANYEGCLWNATGVVVCTGDETQCYGTWVPIGLAIPENEGGGSEGGGSEGGGSEGGGTKPPEYGDTPIPGYTYINPLDGTYPPGTEQNPANPNPSLEESQPLNTFMFQNNRFRNRQGALTVYTGTVTQGTDPVKTYYQYTPVSSKAMYDAYWNGKFRDCAFHSGFNEDPFVCEYQGQSSDLPQPPVNAGGGSGGGSGGGSEGGGSEGGGSEGGGSEGGGSGGGSGSGDFDYEKMANANKGAMTENADENALQSDAKGKLDSVATDYGAAIDGFIGDVSGLANGNGATGDFAGSNSQMAQVGDGDNSPLMNNFRQYLPSLPQSVECRPFVFSAGKPYEFSIDCDKINLFRGVFAFLLYVATFMYVFSTFANILRNKES
notes: as for B2

Key:
[1] = target: B1; assay: ELISA, biotinylated peptide on NEO-101 coated plate
Protocol: To solve the poor binding of peptides to 96 well plate, peptides were biotinylated using EZ-link micro NHS Biotinylation kit (Pierce Cat#21955), and labeling efficiency checked by dot blot (50%). […] The solution was blocked with 200 μl of 1% milk in TBS at RT for 20 min, Aliquots of 100 μl peptide-biotin (1 μg/ml) in 0.1% milk-TBS were added, and incubated at RT of 2 hr, followed by three washes with TBST. Streptavidin-HRP (100 μl of 1:2000 diluted in 1:10 diluted blocking buffer) was added, and the wells incubated at RT for 1 hr, followed by three washed. TMB was then added, and the wells were read at 450 nm. Positive controls for NPC-1C binding used 4B6-biotin. The results are shown in FIG. 11, which indicates biotinlyated peptides bind to NPC-1C coated plate.

[2] = target: T1, MUC5AC truncation construct 1-85; assay: immunofluorescence of transfected 293T cells
Protocol: (§1) Cells were transiently transfected with 2 μg of MUC5AC constructs of Table 8 with LIPOFECTAMINE®. Cells were grown for about 72 hours, fixed with about 4% PFA in PBS, washed with PBS, permeabilized with about 0.2% […] in PBS and washed with PBS. […] Cells were washed with PBS and second anti human-FITC antibody (1:500) was added to all wells and to the second antibody control wells. Cells were washed and mounted on slides with DAPI hard mount. Cover slides were allowed to sit over night at about 4° C. Slides were visualized with a Nikon Eclipse Ti microscope with an Andor camera. At least 3 random fields were counted per transfection.

[3] = target: T2, MUC5AC truncation construct 1-136; assay: immunofluorescence of transfected 293T cells
Protocol: as §1

[4] = target: B1; assay: competition: phage premixed with NEO-101-coupled beads, then rosetting of CFPAC1 cells
Protocol: The M13 clones identified by the biopanning were also immunoassayed using magnetic beads. […] CFPAC1 cells (30 μl of 10⁶cells/ml) were added and incubated at 4° C. for 30 min. Rosetted cells were counted (>8 beads/cell).

YSHSVHAIEDNWSPRGGGGS (also: biotinylated (position not given here), also called negative control) [synthetic peptide 4-1-3-C11 (control peptide)]
binding result [1]: no binding (tested: 1 µg/ml)

B1
binding result [2]: no binding (tested: about 2 µg/ml) | binding result [3]: no binding (tested: about 2 µg/ml)

B2
Positive rosette cells (%) [4]: 0%

B3
Positive rosette cells (%) [4]: 38%

B4
Positive rosette cells (%) [4]: 0%

B5
Positive rosette cells (%) [4]: 0%

B6
Positive rosette cells (%) [4]: 0%

From patent publication US20130247232A1 (PRECISION BIOLOGICS, published 2013)
